Substitutions are numbered along the chain they refer to.
Tests used:
[1] = molecular target: T1, ScPex1^WT (Pex1-FLAG), S. cerevisiae (S. cerevisiae, UniProt P24004 1-1043); experiment: SEC
T1 sequence: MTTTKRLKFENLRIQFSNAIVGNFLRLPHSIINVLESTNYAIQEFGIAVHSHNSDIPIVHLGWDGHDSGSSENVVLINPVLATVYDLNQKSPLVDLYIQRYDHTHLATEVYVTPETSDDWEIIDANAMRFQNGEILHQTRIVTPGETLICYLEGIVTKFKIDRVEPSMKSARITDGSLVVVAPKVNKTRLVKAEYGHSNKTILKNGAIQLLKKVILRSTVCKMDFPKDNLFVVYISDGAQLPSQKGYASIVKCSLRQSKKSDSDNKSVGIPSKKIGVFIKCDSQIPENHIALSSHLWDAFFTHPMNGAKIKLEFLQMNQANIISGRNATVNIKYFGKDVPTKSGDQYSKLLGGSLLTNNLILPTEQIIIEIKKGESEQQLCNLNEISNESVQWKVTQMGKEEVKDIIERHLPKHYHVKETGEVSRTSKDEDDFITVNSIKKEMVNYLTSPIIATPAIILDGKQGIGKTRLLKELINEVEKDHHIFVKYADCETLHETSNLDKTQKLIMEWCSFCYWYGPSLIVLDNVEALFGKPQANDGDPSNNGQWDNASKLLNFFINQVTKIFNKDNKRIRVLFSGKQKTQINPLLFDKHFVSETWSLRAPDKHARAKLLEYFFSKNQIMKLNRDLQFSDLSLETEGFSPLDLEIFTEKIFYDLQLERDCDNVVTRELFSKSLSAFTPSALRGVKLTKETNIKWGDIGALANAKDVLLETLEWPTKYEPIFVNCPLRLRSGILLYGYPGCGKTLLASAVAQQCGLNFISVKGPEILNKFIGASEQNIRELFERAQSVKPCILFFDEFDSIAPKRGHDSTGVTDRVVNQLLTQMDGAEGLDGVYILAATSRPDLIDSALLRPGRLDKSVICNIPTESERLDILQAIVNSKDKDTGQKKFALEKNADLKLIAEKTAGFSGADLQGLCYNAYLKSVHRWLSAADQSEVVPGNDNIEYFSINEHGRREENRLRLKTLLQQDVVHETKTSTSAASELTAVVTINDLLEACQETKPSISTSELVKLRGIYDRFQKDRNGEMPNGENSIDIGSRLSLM

[2] = molecular target: T2, ScPex1^G700D (Pex1-FLAG G700D), S. cerevisiae (S. cerevisiae, UniProt P24004 1-1043, G700D); experiment: SEC
T2 sequence: T1 sequence with G700D

B1: ScPex6 (His-Pex6), S. cerevisiae (natural protein)
chain: MKASLTFSLSGIYAPCSISRDIYLEYGDKKAECLYGTIRLPQYGPGCTPGKIVHCVLDDSLPFCSIVVPSKLFGFMPTQPTMDFCYFEPILDNVVPVLDSVTFLINEQLYSKLMDLPQEMQQIQFLHYKYNINSMETVVHSRDILTSGLCQILNCSPFPQGLVDFTETQLILVNDTEQKLSALKYANEDEEYALPKIGTNSALSIDLESLPCTISRDLLRPAPHINDDNSIYAFTDAETLLRLDVTSGSFITVSNMGCVRLVKLFVLLLPNGFKKRTIYAPPKIIASFPDCSVVTISKSNIGHTDIPIANQVFISRVGGWLQSQKCFQNIILTTLKKFFSESKRILCQNDLIPIAFDSSMADLNIAEENDESDDEDELGQYYKNDSLVWFFVTSAELDCFSKDNSHFIIDPNRTKLITTNITNRRPLPLSRSNLQRYYGFAETFYYDLHIFPYVRQLVNILETSFNCSQRGITLNASVLLHSTTNNVGKATMVRFASKYLGIHLLEIDCLSLTSNSRQLDSTSKIIGYIRAKCENVLPYASPAVIFLAHLDSILLDVNANQDPEAIKLQKSINFEMSKLLDDFTFKFPGTTFVGSVNNIDNVPSSFRSHMRFEILVPVPSEAQRLRIFQWYLSSHELNRDVQQKVPVSYMDNISFSSLSSYSAGLTPLDIKSIVETARMTATARFYQESKKCGWLPQSILITQEDLSKATSKARNEFSVSIGAPQIPNVTWDDIGGIDFVKGEILDTIDMPLKHPELFTSGMKKRSGILFYGPPGTGKTLMAKAIATNFSLNFFSVKGPELLNMYIGESEANVRRVFQKAREAKPCVIFFDEIDSVAPKRGNQGDSGGVMDRIVSQLLAELDGMSTDADGVFVIGATNRPDLLDEALLRPGRFDKLLYLGIPDTDTKQLNILEALTRKFVLDNDVKLIELAKLCPFNYTGADFYALCSDAMLNAMSRIARMVEKKVSQHNELTGENISTRRWFDKIATKEDTKVVVKMEDFLKAQEQLTPSVSRAELNHYEAVRANFEGA
Does B1 bind [1]?
Result: binds

Does B1 bind [2]?
Result: binds
